# In patent publication US20170304435A1 (GOVERNING COUNCIL OF THE UNIVERSITY OF TORONTO, published 2017):
# Positions count from the first letter of the chain named. Names may count otherwise.
# T1: TRAF2, endogenous in Jurkat cells (UniProt Q12933 2-501, limits assumed)
# T1 construct: Endogenous protein probed by immunoblot with rabbit anti-TRAF2 (sc-876)
# T1 sequence (looked up): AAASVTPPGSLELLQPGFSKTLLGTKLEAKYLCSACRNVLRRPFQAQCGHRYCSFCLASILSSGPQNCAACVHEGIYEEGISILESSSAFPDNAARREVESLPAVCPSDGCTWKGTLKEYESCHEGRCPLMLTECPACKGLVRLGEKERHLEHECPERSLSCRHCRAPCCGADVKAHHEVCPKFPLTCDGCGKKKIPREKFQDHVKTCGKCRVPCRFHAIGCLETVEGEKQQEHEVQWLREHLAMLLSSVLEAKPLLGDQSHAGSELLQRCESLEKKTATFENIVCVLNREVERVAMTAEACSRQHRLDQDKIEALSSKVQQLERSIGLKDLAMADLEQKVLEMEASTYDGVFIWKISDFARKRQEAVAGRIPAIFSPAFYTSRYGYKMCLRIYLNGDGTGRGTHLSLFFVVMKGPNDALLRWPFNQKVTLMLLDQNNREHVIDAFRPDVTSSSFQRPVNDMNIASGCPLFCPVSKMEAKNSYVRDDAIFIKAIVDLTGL
# T2: TRAF6 (ubiquitin ligase, tumor necrosis factor receptor-associated factor 6), endogenous in Jurkat or 293T … (UniProt Q9Y4K3 1-522)
# T2 construct: Endogenous protein detected by immunoblot or immunostaining with mouse anti-TRAF6 (sc-8409)
# T2 sequence (looked up): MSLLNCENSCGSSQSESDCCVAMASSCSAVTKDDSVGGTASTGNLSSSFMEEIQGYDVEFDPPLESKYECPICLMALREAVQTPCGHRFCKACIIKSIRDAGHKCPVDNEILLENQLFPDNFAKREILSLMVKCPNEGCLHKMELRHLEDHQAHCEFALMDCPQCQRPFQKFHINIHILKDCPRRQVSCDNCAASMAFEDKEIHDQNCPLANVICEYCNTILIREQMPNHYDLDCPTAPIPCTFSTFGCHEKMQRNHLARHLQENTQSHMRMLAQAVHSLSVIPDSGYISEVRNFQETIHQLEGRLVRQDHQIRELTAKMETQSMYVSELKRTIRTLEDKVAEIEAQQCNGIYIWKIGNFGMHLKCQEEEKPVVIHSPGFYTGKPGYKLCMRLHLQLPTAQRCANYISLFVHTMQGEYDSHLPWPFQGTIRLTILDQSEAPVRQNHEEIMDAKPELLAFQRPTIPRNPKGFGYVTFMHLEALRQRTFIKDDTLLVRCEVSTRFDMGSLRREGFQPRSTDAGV
# B1: FLAG-TIFA wild type (TRAF-interacting forkhead associated protein A with one N-terminal FLAG sequence), from HBP-treated cells (other, not shown: small tags and cut ends)
# chain: MTSFEDADTEETVTCLQMTVYHPGQLQCGIFQSISFNREKLPSSEVVKFGRNSNICHYTFQDKQVSRVQFSLQLFKKFNSSVLSFEIKNMSKKTNLIVDSRELGYLNKMDLPYRCMVRFGEYQFLMEKEDGESLEFFETQFILSPRSLLQENNWPPHRPIPEYGTYSLCSSQSSSPTEMDENES
# modifications: phospho-threonine 9 (pT9), found only after treatment with HBP
# notes: Forms oligomers after HBP; also called FLAG-TIFA wildtype (wt); Wt
# B2: FLAG-TIFA E178A (mutation in the TRAF6 binding site) (other, not shown: small tags and cut ends)
# chain: B1 chain with E178A
# notes: Point mutant of FLAG-TIFA; stably expressed with endogenous TIFA knocked down; also called TRAF6 (E178A) mutant
# B3: FLAG-TIFA G50E/S66A (mutations in the FHA domain) (other, not shown: small tags and cut ends)
# chain: B1 chain with G50E, S66A
# notes: Double point mutant of FLAG-TIFA; stably expressed with endogenous TIFA knocked down; also called FHA mutant
# B4: FLAG-TIFA T9A (other, not shown: small tags and cut ends)
# chain: B1 chain with T9A
# notes: Point mutant of FLAG-TIFA made with QuickChange II; stably expressed with endogenous TIFA knocked down
# Experiments:
# [1] = biological target: the molecule itself; assay: native PAGE and FLAG immunoblot, HBP-treated Jurkat cells
# [2] = biological target: T1, TRAF2, endogenous in Jurkat cells; assay: FLAG-TIFA immunoprecipitation from Jurkat cells, immunoblot for TRAF2
# Method: Briefly, cells were lysed in 50 mM Hepes-KOH pH 8.0, 100 mM KCl, 2 mM EDTA, 0.1% NP40, 10% glycerol. Soluble cell lysates were pre-cleared for 2 hr with mouse IgG agarose (Sigma) and immunoprecipitated overnight at 4° C. Proteins eluted using 0.5 M NH₄OH pH 11 (for mass-spectrometry), or 3× FLAG-peptide (Sigma) (immunoblot analysis). […] Data were analyzed by Scaffold PTM (Proteome).
# [3] = biological target: T2, TRAF6 (ubiquitin ligase, tumor necrosis …); assay: FLAG immunoprecipitation from HBP-treated Jurkat cells, immunoblot for TRAF6
# Method: Briefly, cells were lysed in 50 mM Hepes-KOH pH 8.0, 100 mM KCl, 2 mM EDTA, 0.1% NP40, 10% glycerol. Soluble cell lysates were pre-cleared for 2 hr with mouse IgG agarose (Sigma) and immunoprecipitated overnight at 4° C. Proteins eluted using 0.5 M NH₄OH pH 11 (for mass-spectrometry), or 3× FLAG-peptide (Sigma) (immunoblot analysis).
# [4] = biological target: the molecule itself; assay: confocal microscopy of FLAG-TIFA aggregates in HBP-treated 293T cells
# [5] = biological target: the molecule itself; assay: confocal microscopy of TIFA aggregates in HBP-treated 293T cells
Binder,binding result [1],binding result [2],binding result [3],binding result [4],binding result [5]
B1,binds,no binding,,,
B2,,,no binding,binds,
B3,,,no binding,,
B4,,,no binding,,no binding
